Article PMC11560669 (Angewandte Chemie (International ed. in English), 2024)
Residue numbers refer to the chain shown, from its start. In names and notes the source's numbering stands. Where two headings read alike, the source gives them in different places. Each block holds one molecule with its values, some of them ahead of it.

How the values were obtained:
MBP-Z(6H) = assay: cross-linking
MBP-Z(6K) = assay: cross-linking
MBP-Z(6Y) = assay: cross-linking
[1] = target: extracellular domain (ECD) of human epidermal growth factor receptor (EGFR) (human) (UniProt P00533); assay: cross-linking
[2] = target: extracellular domain (ECD) of human epidermal growth factor receptor 2 (HER2) (human) (UniProt P04626); assay: cross-linking
[3] = target: extracellular domain (ECD) of human epidermal growth factor receptor 2 (HER2) (human) (UniProt P04626); assay: cross-linking; remark: listed apart in the source
[4] = target: extracellular domain (ECD) of human epidermal growth factor receptor 2 (HER2) (human) (UniProt P04626); assay: cross-linking; remark: listed apart in the source
[5] = target: extracellular domain (ECD) of human epidermal growth factor receptor 2 (HER2) (Homo sapiens, UniProt P04626); assay: ELISA

Molecule: Zspa affibody Afb(36FSY/F32R) (designed binder)
fold change of cross-linking rate against Afb(36FSY) (MBP-Z(6H)): 3.7 fold
fold change of cross-linking yield at 16 h against Afb(36FSY) (MBP-Z(6H)): 2.9 fold
fold change of cross-linking rate against Afb(36FSY) (MBP-Z(6K)): 3.4 fold
fold change of cross-linking yield at 16 h against Afb(36FSY) (MBP-Z(6K)): 2.3 fold
fold change of cross-linking rate against Afb(36FSY) (MBP-Z(6Y)): 10.5 fold
fold change of cross-linking yield at 16 h against Afb(36FSY) (MBP-Z(6Y)): 7.9 fold

Molecule: Zspa affibody Afb(36PFY/F32R) (designed binder)
percent increase of the PFEx cross-linking rate against Afb(36PFY) (MBP-Z(6H)): 44%
kobs of cross-linking (MBP-Z(6Y)): 0.0218 h⁻¹

fold change of kobs of cross-linking against 7D12(Y109FSY)-C21 [1]: 2.5 fold
Molecule: covalent NK engager 7D12(Y109FSY/E44R)-C21 (bispecific antibody)

kobs of cross-linking [2]: 0.568 h⁻¹
Molecule: nanobody 2rs15d(D54FSY) (VHH)

fold change of kobs of cross-linking against 2rs15d(D54FSY) at pH 6.0 [3]: 10.7 fold
kobs of cross-linking [3]: 0.705 h⁻¹
fold change of kobs of cross-linking against 2rs15d(D54FSY) at pH 6.5 [4]: 6.6 fold
kobs of cross-linking [4]: 0.888 h⁻¹
kobs of cross-linking [2]: 1.96 h⁻¹
Molecule: nanobody 2rs15d(D54FSY/D56R) (VHH)

kobs of cross-linking [1]: 0.66 h⁻¹
Molecule: nanobody 7D12(Y109FFY/E44R) (VHH)

kobs of cross-linking [1]: 0.342 h⁻¹
Molecule: nanobody 7D12(Y109FSY/E44R) (VHH)

fold change of kobs of cross-linking against 7D12(Y109mFSY) [1]: 1.9 fold
Molecule: nanobody 7D12(Y109mFSY/E44R) (VHH)

binding result [5]: binds
B1: nanobody 2rs15d(D54Y) with the Arg mutation at G53 (VHH)
VHH: QVQLQESGGGSVQAGGSLKLTCAASGYIFNSCGMGWYRQSPGRERELVSRISRYGDTWHKESVKGRFTISQDNVKKTLYLQMNSLKPEDTAVYFCAVCYNLETYWGQGTQVTVSS

fold decrease of binding affinity against 2rs15d(D54Y) [5]: 14 fold
B2: nanobody 2rs15d(D54Y) with the Arg mutation at D56 (VHH)
VHH: B1 VHH with R53G, D56R

binding result [5]: binds
B3: nanobody 2rs15d(D54Y) with the Arg mutation at G55 (VHH)
VHH: B1 VHH with R53G, G55R
